Legend:
[1] = test system: CPT II S113L; parameters: method as in PMID 27123472; details: in vitro; cited from earlier work
[2] = test system: CPT II WT; parameters: method as in PMID 26477380; details: cited from earlier work
[3] = Onset of aggregation by scattered light back reflection during heating ramp; type: physicochemical; details: assay buffer; heating ramp 15 °C to 80 °C
Description: Supplementary materials can be found at https://www.mdpi.com/article/10.3390/ijms22094831/s1, Figure S1: Scattered light back reflection as measure for aggregation during the heating ramp from 15 °C to 80 °C of CPT II WT (black) and the variants P50H (red), S113L (blue) and Y479F (green) in assay buffer (magenta). The light scattering data were obtained simultaneously with nanoDSF data using the back reflection technology in a Prometheus NT.48 device. The unfolding of proteins leads to display of hydrophobic regions of the protein on the surface, which is followed by hydrophobic interaction of the protein molecules resulting in aggregation events. These aggregates are then detected via light scattering. […] The data allow the detection of onset of aggregation (Tagg) which differs clearly among the variants. The Tagg for WT is 38 °C, Y479F is 37 °C, S113L is 35 °C and P50H is 32 °C. […] Figure S2: The first derivatives of the transition curves of WT and the variants resulting from the ratio 350/330 nm were plotted against the temperature. The black, red, blue and green solid lines show the curves of WT and variants P50H, S113L and Y479F measured in assay buffer, respectively. The black, red, blue and green dashed lines show the maxima of the values of the first derivatives of the ratio 350 nm/330 nm of WT and variants P50H, S113L and Y479F, respectively. Figure S3: The effect of amino acid exchange in absence and presence of n-octyl-β-d-glucopyranoside (β-OG) on the stability of CPT II (1 mg/mL) assessed by nanoDSF. The TM of WT (37 °C) in buffer was used as reference value (ΔTM = 0 °C) to determine the ΔTM for the variants and the ΔTM for WT and variants in presence of β- OG. Error bars are SD derived from three independent experiments. Table S1. Comparison of the mean values of the half-lives (t1/2) of CPT II WT and the variants at 30 °C with the half-lives at 37, 40 or 42 °C. The differences of the half-lives for each CPT II enzyme between 37 and 40 or 42 °C as well as 40 and 42 °C are not significant. Number of experiments for each variant (n ≥ 3). Table S2. Comparison of the mean values of the half-lives (t1/2) between CPT II WT and the variants Y479F, S113L and P50H at 30, 37, 40 or 42 °C. n ≥ 3. Table S3. […] Comparison of the ∆TM-values of CPT II WT and the variants Y479F, S113L and P50H in buffer or in presence of 0.25 mM cardiolipin or 1% n-octyl-β-d-glucopyranoside (β-OG) assessed by nanoDSF (n ≥ 3). […] Comparison of the transition temperatures (TM) of WT and the variants Y479F, S113L and P50H in buffer with of 0.25 mM cardiolipin or 1% n-octyl-β-d-glucopyranoside (β-OG) assessed by nanoDSF (n ≥ 3). […]

[4] = substrate: C[N+](C)(C)C[C@H](O)CC(=O)[O-]; assay: Determination of the kinetic parameters kcat and KM; type: biochemical, human; details: other: P50H, L-carnitine varied, absence of CL, 25 °C
Description: Before activity measurements, the storage buffer of the enzymes was replaced with assay buffer (50 mM KH2PO4, 120 mM KCl, 1 mM EDTA-Na4) using vivaspin turbo 4 tubes (Satorius Stedim biotech GmbH, Göttingen, Germany) at 4 °C. The pH of assay buffer was adjusted with KOH to 7.4. The storage buffer was diluted at least 1:500 in assay buffer. In addition, before each experimental set up, the protein samples were centrifuged at 16,000× g for 5 min at 4 °C to remove any micro-aggregates. After that, the protein concentration was determined using bicinchoninic acid (BCA) protein assay kit (Thermo Fisher Scientific GmbH, Berlin, Germany). The enzyme activity of recombinant CPT II was performed following Rufer et al. with modifications described elsewhere. […] After pre-conditioning the mixture to 25 °C for 2 min, the reaction was started by adding 15 nM of recombinant enzyme. The reverse reaction of CPT II was detected with the enzyme activity assay. CPT II catalyzed the transfer of fatty acid residue from Pal-CoA to L-carnitine with release of CoA and Pal-carnitine. The released CoA was then detected by the reaction of the free thiol group with DTNB, forming 5-mercapto-(2-nitrobenzoic acid). This compound has a molar extinction coefficient of 13,600 M^−1 cm^−1 at a wavelength of 410 nm, and its formation was followed spectroscopically. […] The slope of the progress curve was used to determine the reaction velocity.
It is assumed that the reaction catalyzed by CPT II represents a ping-pong mechanism or compulsory order ternary-complex mechanism.
The kinetic parameters were determined by evaluating the obtained v/S characteristic according to the Michaelis–Menten Equation (1). The […] kcat was calculated using Equation (2):(1) v=Vmax∗[S]/KM+[S] (2) kcat=Vmax/cenzyme

[5] = nanoDSF thermostability of recombinant CPT II enzymes in assay buffer; type: physicochemical; details: assay buffer; 1 mg/mL protein; nanoDSF
Description: The protein stability was investigated applying nano differential scanning fluorimetry (nanoDSF) using a protein concentration of 1 mg/mL in assay buffer. […] The heating rate has been set to 1 °C per min. A heating ramp from 15 to 95 °C was determined. The nanoDSF data were obtained using a Prometheus NT.48 device. First derivatives were calculated using PR.ThermControl software (NanoTemper Technologies GmbH, Munich, Germany). Experiments were performed at least three times independently as double determination.

[6] = Thermosensitivity of enzyme activity of recombinant CPT II enzymes (activity half-life after incubation); type: physicochemical; details: 30 °C; 1 mg/mL enzyme
Description: To evaluate the enzyme behavior under different temperature conditions that are relevant under physiological conditions, we chose 30 (cold), 37 (normal), 40 (moderate fever) and 42 °C (high fever) for the experiments. The enzyme variants were expressed recombinantly in E. coli, carried a N-terminal histidine-tag and were purified by standard chromatography in the presence of a detergent (for experimental details, see Section 4.1 and Section 4.2). The impact of temperature was investigated by incubating purified CPT II variants at appropriate temperatures and determining their enzymatic activity after defined incubation periods. The enzyme assay was based on an adaptation of Rufer et al. for the transfer reaction of the palmitic acid from palmitoyl-CoA to L-carnitine (see Section 4.3).
Before activity measurements, the storage buffer of the enzymes was replaced with assay buffer (50 mM KH2PO4, 120 mM KCl, 1 mM EDTA-Na4) using vivaspin turbo 4 tubes (Satorius Stedim biotech GmbH, Göttingen, Germany) at 4 °C. […] After that, the protein concentration was determined using bicinchoninic acid (BCA) protein assay kit (Thermo Fisher Scientific GmbH, Berlin, Germany). […] The reverse reaction of CPT II was detected with the enzyme activity assay. […] The released CoA was then detected by the reaction of the free thiol group with DTNB, forming 5-mercapto-(2-nitrobenzoic acid). […]

## CC(C)(COP(=O)(O)OP(=O)(O)OC[C@H]1O[C@@H](n2cnc3c(N)ncnc32)[C@H](O)[C@@H]1OP(=O)(O)O)[C@@H](O)C(=O)NCCC(=O)NCCSC(=O)CC(=O)O [malonyl-CoA, Malonyl-CoA]
[1]
  Inhibition by malonyl-CoA: abnormal enzyme inhibition
[2]
  Inhibition by malonyl-CoA: not inhibited

B1: CPT II variant P50H (Homo sapiens; P50H) (protein)
chain: SAGSGPGQYLQRSIVPTMHYQDSLHRLPIPKLEDTIRRYLSAQKPLLNDGQFRKTEQFCKSFENGIGKELHEQLVALDKQNKHTSYISGPWFDMYLSARDSVVLNFNPFMAFNPDPKSEYNDQLTRATNMTVSAIRFLKTLRAGLLEPEVFHLNPAKSDTITFKRLIRFVPSSLSWYGAYLVNAYPLDMSQYFRLFNSTRLPKPSRDELFTDDKARHLLVLRKGNFYIFDVLDQDGNIVSPSEIQAHLKYILSDSSPAPEFPLAYLTSENRDIWAELRQKLMSSGNEESLRKVDSAVFCLCLDDFPIKDLVHLSHNMLHGDGTNRWFDKSFNLIIAKDGSTAVHFEHSWGDGVAVLRFFNEVFKDSTQTPAVTPQSQPATTDSTVTVQKLNFELTDALKTGITAAKEKFDATMKTLTIDCVQFQRGGKEFLKKQKLSPDAVAQLAFQMAFLRQYGQTVATYESCSTAAFKHGRTETIRPASVYTKRCSEAFVREPSRHSAGELQQMMVECSKYHGQLTKEAAMGQGFDRHLFALRHLAAAKGIILPELYLDPAYGQINHNVLSTSTLSSPAVNLGGFAPVVSDGFGVGYAVHDNWIGCNVSSYPGRNAREFLQCVEKALEDMFDALEGKSIKS
notes: made in house; host or cells: Escherichia coli BL21Gold DE
[3]
  Onset of aggregation (Tagg): 32 °C
[4]
  Km: 12.8 ± 2.7 mM
  kcat: 138 ± 4.9 s⁻¹
  kcat/Km: 10800 ± 2600 M⁻¹ s⁻¹
[5]
  TM in Buffer: 26.2 ± 0.3 °C
[6]
  Time to complete loss of activity: ≤ 25 min
